Source: patent publication US20260250410A1, “ANTIBODY AND USE THEREOF” (SICHUAN HUIYU PHARMACEUTICAL CO., LTD., priority 2022, published 2026)
Numbering of substitutions follows the chain as printed.

B1: 12E6: anti-CDCP1 murine monoclonal antibody (hybridoma); VH SEQ ID NO: 255, VL SEQ ID NO: 305 (antibody, V domains shown)
VH: EVQLKESGPGILQPSQTLSLTCSFSGFSLSTSGMGVGWIRQPSGKGLEWLAHIWWDDVKLYNPALKSRLTISKETSNNQVFLKIASVDAADTATYYCARIDHGYGSNYWDFDVWGAGTTVTVSS
VL: DIVMTQAAPSVPVTPGGSVSISCRSTKSLLHSDGKTYLYWFLQRPGQSPQLLIYRMSNLASGVPDRFSGSGSGTAFTLRISRVEAEDVGVYYCMQHLEYPFTFGSGTKLEIK
modifications: 12E6 heavy chain variable region; 12E6 light chain variable region
B2: 1CP-063: anti-CDCP1 murine monoclonal antibody (hybridoma); VH SEQ ID NO: 263, VL SEQ ID NO: 313 (antibody, V domains shown)
VH: EVNLKESGPELVKPGASVRISCKASGYTFTSYYIHWVKQRPGQGLEWIGWIYPGNVNSKYNEKFKGKVTLTADKSSITAYMQLSSLTSEDSAVYFCAREDYGHYYAMDYWGQGTTVTVSS
VL: DIVMTQSPSSMYASLGERVTITCKASQDIKSYLSWYQQKPWKSPKTLIYYATSLADGVPSRFSGSGSGQDYSLTISSLESDDTATYYCLQYGESPWTFGGGTKLEIK
modifications: 1CP-063 heavy chain variable region; 1CP-063 light chain variable region
B3: 1CP-067: anti-CDCP1 murine monoclonal antibody (hybridoma); VH SEQ ID NO: 265, VL SEQ ID NO: 315 (antibody, V domains shown)
VH: EVQLKESGGGLVKPGGSLKLSCTASGFTFSVYGMSWVRQTPEKRLEWVATLSGGSNYTYYSDSVKGRFTISRDTGKNNLYLQMSSLSSDDTALYYCATEDGLIGTWGDYWGQGTTVTVSS
VL: DIVMTQAAFSNPVTLGTSASISCRSTKSLLHSNGITYLYWFLQKPGQSPQLLIYQMSNLASGVPDRFSSSGSGTDFTLRISRVEAEDVGVYYCAQNLELPFTFGGGTKLEIK
modifications: 1CP-067 heavy chain variable region; 1CP-067 light chain variable region
B4: 1CP-069: anti-CDCP1 murine monoclonal antibody (hybridoma); VH SEQ ID NO: 266, VL SEQ ID NO: 316 (antibody, V domains shown)
VH: B3 VH with K5Q, E6Q, S55D, S61T, G75A, S87R, D89E, Y95F
VL: B3 VL with F41Y
modifications: 1CP-069 heavy chain variable region; 1CP-069 light chain variable region
B5: 1CP-068: anti-CDCP1 murine monoclonal antibody (hybridoma); VH SEQ ID NO: 270, VL SEQ ID NO: 320 (antibody, V domains shown)
VH: EVQLKESGAELVRPGALVKLSCKASGFNIKDYYMYWVKQRPEQGLEWIGWIDPENGNTIYDPKLQGKARITADTSSNTAYLQLSSLTSEDTAVYYCAGRLYAMEYWGQGTTVTVSS
VL: DVVMTQTPALMSASPGEKVTMTCSASSSVSYMYWYQQKPRSSPKPWIYLTSNLASGVPARFSGSGSGTSYSLTISSMEAEDAATYYCQQWSSDPFTFGGGTKLEIK
modifications: 1CP-068 heavy chain variable region; 1CP-068 light chain variable region
B6: 1CP-061: anti-CDCP1 murine monoclonal antibody (hybridoma); VH SEQ ID NO: 262, VL SEQ ID NO: 312 (antibody, V domains shown)
VH: EVQLKESGAELVRPGASVKLSCKASGYTFTSYWINWVRQRPGQGLEWIGNIYPSDSYTNYNQKFKDKATLTVDKSSSTAYMQLSSPTSEDSAVYYCTRCLRRRDWYFDVWGQGTTVTVSS
VL: DVVMTQTPASLAVSLGQRATISCRASESVDYSGYSFMHWYQQKPGQPPKLLIYRASNLESGIPARFSGSGSRTDFTLTINPVEADDVATYYCQQSNEDPYTFGGGTKLEIK
modifications: 1CP-061 heavy chain variable region; 1CP-061 light chain variable region
B7: 1CP-064: anti-CDCP1 murine monoclonal antibody (hybridoma); VH SEQ ID NO: 267, VL SEQ ID NO: 317 (antibody, V domains shown)
VH: EVKLVESGPGILQPSQTLSLTCSFSGFSLSTSGMGVGWIRQPSGKGLEWLAHIWWDDVKRYNPALKSRLTISKDTSSSQVFLKIASVDTADTATYYCARMGGKVPWFAYWGQGTTVTVSS
VL: B6 VL with Y31S, S32Y, Y34N, R54L, I62V, N80D, V87A, S95N, Y100W
modifications: 1CP-064 heavy chain variable region; 1CP-064 light chain variable region
B8: 1CP-062: anti-CDCP1 murine monoclonal antibody (hybridoma); VH SEQ ID NO: 264, VL SEQ ID NO: 314 (antibody, V domains shown)
VH: EVKLVESGPGLVAPSQSLSITCTVSGFSLTTYGVHWVRQPPGKGLEWLVVIWSDGNTTYNSALKSRLSINKDNSKSQVFLKMNSLQTDDTAMYYCAKNYRNYDYAMDYWGQGTTVTVSS
VL: B6 VL with V2I, Y31S, S32Y, Y34N
modifications: 1CP-062 heavy chain variable region; 1CP-062 light chain variable region
B9: 1CP-066: anti-CDCP1 murine monoclonal antibody (hybridoma); VH SEQ ID NO: 268, VL SEQ ID NO: 318 (antibody, V domains shown)
VH: EVTLKESGPELKKPGETVKISCKASGYAFTKYGMNWVKQAPGKDLKFMGWINTYTGEATYADDFKGRFDFSLEASASTAFLRINNLKNEDTATYFCSRGDDYGTGGYVLFYWGQGTTVTVSS
VL: DIVMTQAAASLSVTVGETVTITCRASENIYNNLAWYQQQQGKSPQLLVYAATNLADGVPSRFSGSGSGTHYSLKINSLQSEDFGFYYCQHFWGTPPTFGGGTKLEIK
modifications: 1CP-066 heavy chain variable region; 1CP-066 light chain variable region
B10: 1CP-065: anti-CDCP1 murine monoclonal antibody (hybridoma); VH SEQ ID NO: 269, VL SEQ ID NO: 319 (antibody, V domains shown)
VH: EVTLKESGAELVRPGALVKLSCKASGFNIKDYYMHWVKQRPEQGLEWIGWIDPENDNTIYDPKFQGKASITADTSSNTAYLQLSSLTSEDTAVYYCARFYGSYYYAMDYWGQGTTVTVSS
VL: DIVMTQSPKFMSTSVGDRVSITCKASQDVSTAVTWYQQKPGQSPKLLIYWASTRHTGVPDRFTGSGSGTDYTLTISSVQAEDLALYYCQQHYSTPYTFGGGTKLEIK
modifications: 1CP-065 heavy chain variable region; 1CP-065 light chain variable region

These molecules were tested on PC3 cells (assay: Endocytosis capacity of murine monoclonal antibody (flow cytometry internalization)). Settings: PC3, 0.5 h at 37° C., antibody 1.5 μg/mL.
Assay type: cell-based, human
Description: (§1) The endocytosis capacity of the antibody was detected for 0.5 to 2 hours. MDA-MB-231 and PC3 cells were subjected to digestion with 5 mM EDTA, and plated at 4×10^4 cells/well after cell counting. After adding an Fc blocker (Human TruStain FcX™, Biolegend, 422302) and blocking at room temperature for 10 mins, a test antibody (1.5 μg/mL) was added, and the mixture was incubated at 4° C. for 30 mins, centrifuged, and washed twice with PBS+2% FBS, then the cells were divided into four equal portions (labeled as 0 h, 0.5 h, 1 h, 2 h), cells labeled as 0.5 h, 1 h, 2 h time points were added to a cell culture medium at 200 µL/well, and cultured at 37° C. for 0.5 h, 1 h, 2 h, respectively. Cells at 0 h point were centrifuged to remove supernatant, a secondary antibody (PE anti-human IgG Fc Antibody, Biolegend, 410708) was added, and the mixture was incubated at 4° C. for 30 mins, centrifuged, and washed twice with PBS+2% FBS, and detection was performed using a flow cytometer. After incubation of cells labeled as 0.5 h, 1 h, and 2 h points at 37° C. was completed, a secondary antibody was added (in the same steps as those at 0 h point), Geo-MFI of the signal under the same voltage was collected as detection signal at 0 h, and antibody internalization rate was calculated according to the following equation: Internalization (%)=(Geo-MFI (0 h)-Geo-MFI (0.5, 1, 2 h))/Geo-MFI (0 h)×100%.
For B1, the “Internalization PC3 (%) 0.5 h” value was 0.00%.

Same assay, conditions: PC3, 1 h at 37° C., antibody 1.5 μg/mL
With B1 the “Internalization PC3 (%) 1 h” value was 0.00%.

Same assay, conditions: PC3, 2 h at 37° C., antibody 1.5 μg/mL
B2 was tested, and the “Internalization PC3 (%) 2 h” value was 62.68%.
For B3, the “Internalization PC3 (%) 2 h” value was 72.66%.
In the case of B4, the “Internalization PC3 (%) 2 h” value is reported as 73.92%.
B5 was tested, and the “Internalization PC3 (%) 2 h” value was 66.24%.
B6 was tested, and the “Internalization PC3 (%) 2 h” value was 28.00%.
B7 was tested, and the “Internalization PC3 (%) 2 h” value was 93.05%.
With B8 the “Internalization PC3 (%) 2 h” value was 66.74%.
With B9 the “Internalization PC3 (%) 2 h” value was 33.21%.
For B10, the “Internalization PC3 (%) 2 h” value was 68.71%.
For B1, the “Internalization PC3 (%) 2 h” value was 7.99%.

These molecules were tested on MDA-MB-231 cells in the same assay as above. Settings: MDA-MB-231, 0.5 h at 37° C., antibody 1.5 μg/mL.
Assay type: cell-based, human
Description: as §1
B1 was tested, and the “Internalization MDA-MB-231 (%) 0.5 h” value was 10.62%.

Same assay, conditions: MDA-MB-231, 1 h at 37° C., antibody 1.5 μg/mL
With B1 the “Internalization MDA-MB-231 (%) 1 h” value was 7.08%.

Same assay, conditions: MDA-MB-231, 2 h at 37° C., antibody 1.5 μg/mL
In the case of B2, the “Internalization MDA-MB-231 (%) 2 h” value is reported as 49.71%.
In the case of B3, the “Internalization MDA-MB-231 (%) 2 h” value is reported as 69.09%.
B4 was tested, and the “Internalization MDA-MB-231 (%) 2 h” value was 73.58%.
B5 was tested, and the “Internalization MDA-MB-231 (%) 2 h” value was 49.47%.
B6 was tested, and the “Internalization MDA-MB-231 (%) 2 h” value was 42.68%.
B7 was tested, and the “Internalization MDA-MB-231 (%) 2 h” value was 93.43%.
In the case of B8, the “Internalization MDA-MB-231 (%) 2 h” value is reported as 59.61%.
With B9 the “Internalization MDA-MB-231 (%) 2 h” value was 55.57%.
For B10, the “Internalization MDA-MB-231 (%) 2 h” value was 52.89%.
B1 was tested, and the “Internalization MDA-MB-231 (%) 2 h” value was 27.65%.
